The target in the experiment is T1, β2AR-GFP10 (human, UniProt P07550 1-413).
T1 construct: whole, on cells; Expressed in HEK293T cells; also called GFP tagged-β2 adrenergic receptor; not shown: GFP10, variant of GFP
Briefly: BRET2 kinetics, living cells, 10 µM Iso up to 4 min. A general note: Bioluminescence resonance energy transfer reports proximity on the nanometre scale.

One molecule from patent US9029097 (UNIVERSITE DE MONTREAL, dated 2015) can be followed below.

B1: QL-Gαi1-122Rluc (other)
chain: MGCTLSAEDKAAVERSKMIDRNLREDGEKAAREVKLLLLGAGESGKSTIVKQMKIIHEAGYSEEECKQYKAVVYSNTIQSIIAIIRAMGRLKIDFGDSARADDARQLFVLAGAAEEGFMTAESGGGGSMTSKVYDPEQRKRMITGPQWWARCKQMNVLDSFINYYDSEKHAENAVIFLHGNAASSYLWRHVVPHIEPVARCIIPDLIGMGKSGKSGNGSYRLLDHYKYLTAWFELLNLPKKIIFVGHDWGACLAFHYSYEHQDKIKAIVHAESVVDVIESWDEWPDIEEDIALIKSEEGEKMVLENNFFVETMLPSKIMRKLEPEEFAAYLEPFKEKGEVRRPTLSWPREIPLVKGGKPDVVQIVRNYNAYLRASDDLPKMFIESDPGFFSNAIVEGAKKFPNTEFVKVKGLHFSQEDAPDEMGKYIKSFVERVLKNEQSGGGGSLAGVIKRLWKDSGVQACFNRSREYQLNDSAAYYLNDLDRIAQPNYIPTQQDVLRTRVKTTGIVETHFTFKDLHFKMFDVGGLRSERKKWIHCFEGVTAIIFCVALSDYDLVLAEDEEMNRMHESMKLFDSICNNKWFTDTSIILFLNKKDLFEEKIKKSPLTICYPEYAGSNTYEEAAAYIQCQFEDLNKRKDTKEIYTHFTCATDTKNVQFVFDAVTDVIIKNNLKDCGLF
notes: unable to hydrolyse GTP; also called Rluc-tagged constitutively active Q204L-Gαi1 mutant
Turning to B1, the binding result was “binds”.
